In the supplement of paper PMC9876800:

Tested on: peptide library, one residue held at a place counted from the S/T acceptor
Assay: relative phosphorylation of the sub-library (ratio to the mean residue at this position); higher = residue favoured
In short: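 In 384-well plates, purified recombinant kinases (human or orthologue constructs) were incubated for 90 min under kinase-specific conditions with 50 μM biotinylated degenerate peptide sub-libraries and 50 μM ATP spiked with γ-32P-ATP. Each sub-library fixed a single residue at one position around a central Ser/Thr. Relative sub-library phosphorylation, measured by phosphorimaging and densitometry of streptavidin membrane spots, is given as a ratio to the mean residue at that position.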

PRKDC, construct: Full length, human, sequence (P78527 whole entry, looked up): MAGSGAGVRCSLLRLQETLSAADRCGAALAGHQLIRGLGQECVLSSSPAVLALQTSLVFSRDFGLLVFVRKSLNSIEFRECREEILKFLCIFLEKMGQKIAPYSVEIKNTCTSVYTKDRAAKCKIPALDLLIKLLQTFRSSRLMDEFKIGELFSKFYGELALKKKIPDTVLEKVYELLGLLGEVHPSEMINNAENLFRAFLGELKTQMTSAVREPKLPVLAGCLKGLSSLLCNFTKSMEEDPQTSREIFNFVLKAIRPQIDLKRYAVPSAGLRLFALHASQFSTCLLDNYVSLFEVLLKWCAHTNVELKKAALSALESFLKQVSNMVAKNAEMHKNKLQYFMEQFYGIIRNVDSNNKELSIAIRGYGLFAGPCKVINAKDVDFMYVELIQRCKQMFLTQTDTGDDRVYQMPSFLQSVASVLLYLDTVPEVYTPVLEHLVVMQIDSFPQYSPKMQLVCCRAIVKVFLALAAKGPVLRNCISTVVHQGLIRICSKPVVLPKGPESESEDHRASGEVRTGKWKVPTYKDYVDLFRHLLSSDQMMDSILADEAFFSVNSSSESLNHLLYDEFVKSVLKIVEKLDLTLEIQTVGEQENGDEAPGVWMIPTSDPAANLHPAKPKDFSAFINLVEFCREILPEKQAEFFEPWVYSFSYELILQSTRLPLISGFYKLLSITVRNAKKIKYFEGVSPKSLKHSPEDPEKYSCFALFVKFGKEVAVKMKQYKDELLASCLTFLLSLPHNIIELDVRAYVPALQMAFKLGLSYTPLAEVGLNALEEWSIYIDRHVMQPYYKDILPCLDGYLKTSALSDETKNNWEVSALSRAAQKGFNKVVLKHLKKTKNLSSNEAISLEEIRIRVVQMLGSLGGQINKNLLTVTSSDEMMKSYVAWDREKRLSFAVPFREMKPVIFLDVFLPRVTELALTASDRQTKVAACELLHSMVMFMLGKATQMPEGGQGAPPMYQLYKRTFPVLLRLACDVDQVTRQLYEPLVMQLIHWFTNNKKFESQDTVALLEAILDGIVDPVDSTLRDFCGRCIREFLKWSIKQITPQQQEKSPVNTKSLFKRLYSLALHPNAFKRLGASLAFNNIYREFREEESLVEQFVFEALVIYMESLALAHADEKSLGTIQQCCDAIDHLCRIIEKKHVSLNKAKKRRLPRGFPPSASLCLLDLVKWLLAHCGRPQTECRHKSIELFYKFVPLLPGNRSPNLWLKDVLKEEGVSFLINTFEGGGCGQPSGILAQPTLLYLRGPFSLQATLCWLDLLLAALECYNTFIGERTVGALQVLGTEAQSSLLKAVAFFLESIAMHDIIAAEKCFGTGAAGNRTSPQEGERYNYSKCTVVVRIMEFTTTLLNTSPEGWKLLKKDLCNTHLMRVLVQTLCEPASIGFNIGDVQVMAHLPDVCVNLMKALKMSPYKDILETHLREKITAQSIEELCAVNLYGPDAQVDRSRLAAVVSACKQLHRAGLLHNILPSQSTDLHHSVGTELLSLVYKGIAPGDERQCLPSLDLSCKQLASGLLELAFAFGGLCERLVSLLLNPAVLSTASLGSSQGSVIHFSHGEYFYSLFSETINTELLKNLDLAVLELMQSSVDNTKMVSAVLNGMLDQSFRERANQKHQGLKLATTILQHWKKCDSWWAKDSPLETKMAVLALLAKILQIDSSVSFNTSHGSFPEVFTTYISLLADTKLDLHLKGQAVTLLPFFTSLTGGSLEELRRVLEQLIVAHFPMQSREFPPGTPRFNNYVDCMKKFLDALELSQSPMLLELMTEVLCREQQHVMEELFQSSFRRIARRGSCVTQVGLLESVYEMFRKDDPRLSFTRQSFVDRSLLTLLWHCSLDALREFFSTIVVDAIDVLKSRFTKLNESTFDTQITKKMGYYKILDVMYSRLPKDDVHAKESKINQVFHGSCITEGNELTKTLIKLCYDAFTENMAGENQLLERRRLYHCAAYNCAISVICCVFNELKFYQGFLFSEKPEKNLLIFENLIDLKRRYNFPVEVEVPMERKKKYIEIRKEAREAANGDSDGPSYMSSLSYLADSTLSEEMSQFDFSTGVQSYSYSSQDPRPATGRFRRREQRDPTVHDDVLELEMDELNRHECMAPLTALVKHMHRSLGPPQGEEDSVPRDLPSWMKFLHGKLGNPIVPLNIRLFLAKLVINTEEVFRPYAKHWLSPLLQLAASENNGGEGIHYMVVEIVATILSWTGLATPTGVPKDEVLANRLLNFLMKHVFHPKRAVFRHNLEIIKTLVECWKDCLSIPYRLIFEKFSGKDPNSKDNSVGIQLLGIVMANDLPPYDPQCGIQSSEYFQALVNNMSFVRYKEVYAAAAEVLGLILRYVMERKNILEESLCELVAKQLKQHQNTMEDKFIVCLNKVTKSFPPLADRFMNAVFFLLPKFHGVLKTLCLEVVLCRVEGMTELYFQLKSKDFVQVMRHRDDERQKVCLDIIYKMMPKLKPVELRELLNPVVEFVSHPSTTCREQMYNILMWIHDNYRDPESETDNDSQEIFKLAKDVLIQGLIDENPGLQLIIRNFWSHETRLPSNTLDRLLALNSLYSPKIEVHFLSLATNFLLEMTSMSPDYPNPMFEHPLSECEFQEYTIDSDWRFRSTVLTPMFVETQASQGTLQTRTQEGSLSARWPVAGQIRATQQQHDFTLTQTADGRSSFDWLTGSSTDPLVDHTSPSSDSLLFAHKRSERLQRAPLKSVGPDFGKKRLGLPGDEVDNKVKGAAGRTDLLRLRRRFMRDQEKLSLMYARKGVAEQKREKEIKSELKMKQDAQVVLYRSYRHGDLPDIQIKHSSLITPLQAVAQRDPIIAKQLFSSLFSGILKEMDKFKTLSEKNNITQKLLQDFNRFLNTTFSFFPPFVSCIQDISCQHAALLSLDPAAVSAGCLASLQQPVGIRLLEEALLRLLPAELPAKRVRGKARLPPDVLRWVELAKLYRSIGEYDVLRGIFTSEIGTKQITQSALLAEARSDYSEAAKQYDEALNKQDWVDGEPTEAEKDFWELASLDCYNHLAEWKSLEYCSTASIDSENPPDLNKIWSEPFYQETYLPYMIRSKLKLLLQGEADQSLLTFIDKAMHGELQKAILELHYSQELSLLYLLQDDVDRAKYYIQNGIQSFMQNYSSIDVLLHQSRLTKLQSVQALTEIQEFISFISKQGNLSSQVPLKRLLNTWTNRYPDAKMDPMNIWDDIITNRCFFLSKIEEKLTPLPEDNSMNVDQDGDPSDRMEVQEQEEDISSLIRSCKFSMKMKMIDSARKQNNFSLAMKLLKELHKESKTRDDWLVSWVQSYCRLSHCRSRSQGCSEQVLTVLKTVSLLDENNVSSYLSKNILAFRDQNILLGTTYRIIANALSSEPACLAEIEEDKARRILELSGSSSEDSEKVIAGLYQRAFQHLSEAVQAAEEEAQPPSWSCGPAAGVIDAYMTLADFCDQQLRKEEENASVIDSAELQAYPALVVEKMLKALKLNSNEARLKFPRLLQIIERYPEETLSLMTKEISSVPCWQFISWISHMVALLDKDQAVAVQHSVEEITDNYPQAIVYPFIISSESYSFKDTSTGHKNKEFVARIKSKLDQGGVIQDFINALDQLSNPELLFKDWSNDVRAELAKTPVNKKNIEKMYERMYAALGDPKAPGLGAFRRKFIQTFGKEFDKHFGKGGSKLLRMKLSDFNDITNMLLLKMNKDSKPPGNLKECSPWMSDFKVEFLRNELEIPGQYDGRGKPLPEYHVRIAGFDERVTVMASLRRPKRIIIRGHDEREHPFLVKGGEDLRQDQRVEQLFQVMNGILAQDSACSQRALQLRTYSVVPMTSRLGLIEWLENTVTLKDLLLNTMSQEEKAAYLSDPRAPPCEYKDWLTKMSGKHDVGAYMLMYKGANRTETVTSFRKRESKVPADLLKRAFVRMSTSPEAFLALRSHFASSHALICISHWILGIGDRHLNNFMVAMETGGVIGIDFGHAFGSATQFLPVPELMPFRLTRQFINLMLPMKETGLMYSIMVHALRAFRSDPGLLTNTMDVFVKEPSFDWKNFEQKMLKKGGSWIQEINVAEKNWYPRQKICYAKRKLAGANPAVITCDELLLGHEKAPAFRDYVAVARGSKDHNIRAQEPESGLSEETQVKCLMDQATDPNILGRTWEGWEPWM

CDC42BPA, construct: aa1-473, human (from UniProt Q5VT25)
relative phosphorylation
Conditions	at +1	at +2	at +3	at +4	at -1	at -2	at -3	at -4	at -5
A fixed	0.571	0.98	0.605	0.722	0.552	0.403	0.476	0.689	0.776
D fixed	0.475	0.764	0.723	0.799	0.668	0.306	0.342	0.53	0.483
E fixed	0.435	0.379	0.701	0.719	0.436	0.226	0.23	0.498	0.321
F fixed	0.802	1.2	1.15	1.1	0.645	0.519	0.424	0.758	0.814
G fixed	0.849	1.06	1.32	0.933	0.984	0.431	0.442	0.765	0.629
H fixed	0.961	1.06	1.27	1.17	1.27	1.25	1.3	1.22	1.04
I fixed	1.61	1.56	0.911	0.783	0.453	0.267	0.295	0.651	0.688
K fixed	0.961	1.01	1.56	1.21	2.71	2.5	2.6	2.28	3.39
L fixed	1.79	1.52	0.789	0.94	1.33	0.416	0.329	0.709	0.771
M fixed	1.45	0.918	0.745	0.872	1.01	0.507	0.354	0.803	0.632
N fixed	1.84	0.88	0.914	1.15	1.15	0.855	0.534	0.893	0.688
P fixed	0.35	1.1	0.983	1.2	1.28	0.482	0.496	0.995	0.666
Q fixed	1.18	0.681	1.3	1.06	1.13	0.973	0.75	0.847	0.911
R fixed	1.17	0.868	1.01	1.04	1.45	5.97	7.05	3.1	2.99
V fixed	0.898	1.08	0.702	0.777	0.529	0.292	0.282	0.641	0.586
W fixed	0.867	0.952	1.12	1.53	0.605	0.852	0.622	0.902	0.809
Y fixed	0.786	1.01	1.18	0.99	0.798	0.744	0.469	0.718	0.814
pThr fixed	0.636	0.97	0.873	1.38	0.283	0.304	0.369	0.547	0.552
pTyr fixed	1.24	0.795	0.785	1.13	0.396	0.353	0.378	0.441	0.391

PRKDC, construct: Full length, human (from UniProt P78527)
relative phosphorylation
Conditions	at +1	at +2	at +3	at +4	at -1	at -2	at -3	at -4	at -5
A fixed	0.244	1.11	0.987	0.798	1.14	1.28	1.11	0.908	1.01
D fixed	0.156	3.46	1.28	1.49	0.887	0.607	0.595	0.795	0.728
E fixed	0.145	2.46	1.6	1.57	1.08	0.733	0.681	0.895	0.773
F fixed	1.31	0.561	1.15	1.13	1.22	1.25	1.13	1.02	1.15
G fixed	0.222	0.753	0.712	0.971	2.01	1.28	1.11	1.35	1.13
H fixed	0.179	0.678	0.721	0.931	0.977	1.08	1.05	1.06	1.07
I fixed	0.705	0.41	0.935	0.728	0.352	0.969	1.08	1.07	1.03
K fixed	0.166	0.556	0.627	0.625	0.345	0.776	0.796	0.961	1.2
L fixed	2.21	0.558	0.943	0.715	0.87	0.831	1	0.953	0.957
M fixed	1.25	0.688	1.27	1.09	1.07	1.06	1.16	1.02	1.06
N fixed	0.407	0.879	0.7	0.902	1.25	1.25	0.829	0.829	0.879
P fixed	0.638	1.2	0.943	0.825	0.725	0.937	1.02	0.907	0.944
Q fixed	7.43	1	0.818	0.869	1.2	0.99	0.891	0.85	0.656
R fixed	0.362	0.725	0.623	0.88	0.686	1.13	1.12	1.17	1.21
V fixed	0.371	0.609	1.02	0.653	0.317	0.852	0.967	0.812	0.979
W fixed	0.309	0.656	1.36	1.6	0.835	0.916	1.16	1.18	1.11
Y fixed	0.892	0.702	1.31	1.22	2.04	1.06	1.3	1.22	1.11
pThr fixed	0.228	1.74	1.81	1.94	0.33	0.77	0.764	0.76	0.72
pTyr fixed	0.194	0.795	1.87	1.87	0.926	0.966	0.829	0.692	0.654
